According to patent US20240287178A1 (YALE UNIVERSITY, published 2024):
Positions count from the first letter of the chain named. Each block holds one binder with its values, some of them ahead of it.

Tests used:
[1] = target: T1, Rat UNC5B (rat, UniProt O08722); experiment: Biacore
T1 construct: a recombinant rat Unc5B-ECD Fc fusion protein (R&D systems) only for the phage selection; Kept apart from m11, which is the GFP fusion expressed in PAECs; also called rat Unc5B (Biacore analysis)

[2] = target: T2, human Unc5B (human, UniProt Q8IZJ1 27-945); experiment: Biacore
T2 construct: whole, on cells; also called Unc5B (HUVEC)

[3] = target: T3, Unc5B (analyte or ligand of the Biacore analysis; species and construct not stated); experiment: Biacore (SPR); format not stated
T3 construct: The phage selection used a recombinant rat Unc5B-ECD Fc fusion (R&D Systems)

[4] = target: T4, rat Unc5B coupled to GFP, in transfected porcine aortic endothelial cells (PAECs) (rat, UniProt O08722 27-945); experiment: immunoprecipitation from PAECs transfected with rat Unc5B-GFP, 1 h after antibody treatment
T4 construct: whole, on cells; also called rat Unc5B-GFP; not shown: GFP
Source text: Light (LC) and Heavy (HC) chains were sequenced for each antibody (FIGS. 1A-1D and 2A-2D).

[5] = target: T5, mouse Unc5B (mouse, UniProt Q8K1S3 27-945); experiment: immunoprecipitation from Bend.3 cells after antibody treatment, western blot for Unc5B
T5 construct: whole, on cells; Endogenous receptor, on cells or in brain lysates; also called Unc5B (Bend.3 cells, mouse brain)

[6] = target: T5, mouse Unc5B; experiment: co-immunoprecipitation with the anti-Unc5B antibodies from Bend.3 cells, western blot for Claudin5

binding result [4]: binds
B3: antibody 1101 (antibody, V domains shown)
VH: EVQLVESGGGLVQPGGSLRLSCAASGFNIYYSSMHWVRQAPGKGLEWVAYISSSYGYTYYADSVKGRFTISADTSKNTAYLQMNSLRAEDTAVYYCARGYYAGYFGIDYWGQGTLVTVSS
VL: DIQMTQSPSSLSASVGDRVTITCRASQSVSSAVAWYQQKPGKAPKLLIYSASSLYSGVPSRFSGSRSGTDFTLTISSLQPEDFATYYCQQAGWPITFGQGTKVEIKR

binding result [4]: binds
B6: antibody 1099 (antibody, V domains shown)
VH: EVQLVESGGGLVQPGGSLRLSCAASGFNLYYYSIHWVRQAPGKGLEWVASIYPYSSYTSYADSVKGRFTISADTSKNTAYLQMNSLRAEDTAVYYCARGYAFNYWGQGTLVTVSS
VL: B3 VL with A91H, G92Y, W93A, P94L, I95F

binding result [4]: binds
binding result [5]: binds
B7: antibody 1096 (antibody, V domains shown)
VH: B6 VH with Y32S, P53S, G99S, F102M, N103D
VL: B3 VL with A91G, G92F, W93A, I95F

binding result [4]: binds
B8: antibody 1102 (antibody, V domains shown)
VH: B6 VH with L29I, Y32S, I34M, P53S, G99S, Y100F, F102M, N103D
VL: B3 VL with G92Y, W93S, I95F

binding result [4]: binds
binding result [5]: binds
B9: antibody 1098 (antibody, V domains shown)
VH: B6 VH with L29I, Y32S, S33Y, I34M, P53S, G99H, F102M, N103D
VL: B3 VL with A91S, G92Y, W93S, I95F

binding result [6]: binds
B10: mouse Claudin5 (other, UniProt O54942 1-218, looked up)
chain: MGSAALEILGLVLCLVGWVGLILACGLPMWQVTAFLDHNIVTAQTTWKGLWMSCVVQSTGHMQCKVYESVLALSAEVQAARALTVGAVLLALVALFVTLTGAQCTTCVAPGPVKARVALTGGALYAVCGLLALVPLCWFANIVVREFYDPTVPVSQKYELGAALYIGWAASALLMCGGGLVCCGAWVCTGRPEFSFPVKYSAPRRPTANGDYDKKNYV

Second part, the binder before the results:

B1: antibody 1097 (antibody, V domains shown)
VH: B6 VH with I34M, P53S, G99S, F102M, N103D
VL: B3 VL with A91S, G92Y, W93G, I95F
Kd [1]: 0.712 nM
koff [1]: 0.00104 s⁻¹
kon [1]: 1.46e+06 M⁻¹ s⁻¹
Kd [2]: 0.692 nM
koff [2]: 0.000993 s⁻¹
kon [2]: 1.44e+06 M⁻¹ s⁻¹
Kd [3]: 0.7 nM

B2: antibody 1095 (antibody, human IgG2, kappa, V domains shown)
VH: B6 VH with L29I, Y30S, Y32S, S50Y, S55Y, S56G, S59Y, A101G, F102I, N103D
VL: B3 VL with A91H, G92Y, W93S, P94L, I95F
binding result [4]: binds
binding result [5]: binds

B4: anti-Unc5B antibody 1103 (antibody, V domains shown)
VH: B6 VH with L29I, Y30S, P53S, Y54S, S56G, A101G, F102L, N103D
VL: DIQMTQSPSSLSASVGDRVTITCRASQSVSSAVAWYQQKPGKAPKLLIYSASSLYSGVPSRFSGSRSGTDFTLTISSLQPEDFATYYCQQHYSYPITFGQGTKVEIKR
Kd [1]: 1.34 nM
koff [1]: 0.000501 s⁻¹
kon [1]: 375000 M⁻¹ s⁻¹
Kd [2]: 1.29 nM
koff [2]: 0.000482 s⁻¹
kon [2]: 375000 M⁻¹ s⁻¹
Kd [3]: 1.3 nM

B5: antibody 1100 (antibody, V domains shown)
VH: B6 VH with Y32S, P53S, F102M, N103D
VL: B3 VL with A91H, G92Y, W93G, P94L
binding result [4]: binds
binding result [5]: binds
